For this test, the target named is T1, FluPolB (influenza B/Memphis/13/2003 polymerase heterotrimer) (influenza B/Memphis/13/2003, UniProt Q5V8Z9;Q5V8Y6;Q5V8X3).
T1 construct: copies: + +
In words: SEC. The conditions noted are these: both partners purified.

B1: hANP32A LCAR alone (144-249) (domain or fragment)
chain: YLDGYDRDDKEAPDSDAEGYVEGLDDEEEDEDEEEYDEDAQVVEDEEDEDEEEEGEEEDVSGEEEEDEEGYNDGEVDDEEDEEELGEEERGQKRKREPEDEGEDDD
Consider B1, for which the binding result is “binds”.

Source of the values: publication PMC11333492 (Nature Communications, 2024).
